Assay results from the supplement of paper PMC7877785.
± gives the uncertainty stated by the source.

Test: self-splicing fitness, log relative to wild type (ln ratio); higher = more splicing; Tetrahymena group I intron in knt gene, E. coli kanamycin selection, DiMSum; sequences stand for … in CUCUCU…GGAGGGAAAAGUUAUCAGGCAUGCACCUGGUAGCUAGUCUUUAAACCAAUAGAUUGCAUCGGUUUAAAAGGCAAGACCGUCAAAUUGCGGGAAAGGGGUCAACAGCCGUUCAGUACCAAGUCUCAGGGGAAACUUUGAGAUGGCCUUGCAAAGGGUAUGGUAAUAAGCUGACGGACAUGGUCCUAACCACGCAGCCAAGUCCUAAGUCAACAGAUCUUCUGUUGAUAUGGAUGCAGUUCACAGACUAAAUGUCGGUCGGGGAAGAUGUAUUCUUCUCAUAAGAUAUAGUCGGACCUCUCCUUAAUGGGAGCUAGCGGAUGAAGUGAUGCAACACUGGAGCCGCUGGGAACUAAUUUGUAUGCGAAAGUAUAUUGAUUAGUUUUGGAGUACUCGUGGUCG
Procedure, shortened: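 A randomised library covering all eight P1ex-region intron nucleotides was built with the intron in the knt kanamycin-resistance gene on pET-22b(+) and held in E. coli BL21(DE3). Cells were grown overnight at 37°C or 30°C on LB agar, with or without 25 μg/mL kanamycin, plus 100 μg/mL carbenicillin, 50 μM IPTG and 0.2% rhamnose, and pooled colonies were amplicon-sequenced on an Illumina HiSeq 2500. DiMSum fitness is the error-weighted combination of wild-type-normalised replicate fold changes, kanamycin versus none.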

## ACGGAGCAAUAUUACGUUCA
30 °C
  self-splicing fitness (ln): -1.94 ± 0.18
37 °C
  self-splicing fitness (ln): -0.749 ± 0.13

## ACGUAGCAAUAUUACGAAAA
30 °C
  self-splicing fitness (ln): -2.5 ± 0.21
37 °C
  self-splicing fitness (ln): -1.58 ± 0.19

## ACGUAGCAAUAUUACGAAUC
30 °C
  self-splicing fitness (ln): -4.01 ± 0.3
37 °C
  self-splicing fitness (ln): -2.74 ± 0.3

## ACGUAGCAAUAUUACGAAUU
30 °C
  self-splicing fitness (ln): -1.42 ± 0.087
37 °C
  self-splicing fitness (ln): -0.778 ± 0.11

## ACGUAGCAAUAUUACGAGAU
30 °C
  self-splicing fitness (ln): -2.82 ± 0.14
37 °C
  self-splicing fitness (ln): -2.23 ± 0.19

## ACGUAGCAAUAUUACGAGUA
30 °C
  self-splicing fitness (ln): -3.15 ± 0.21
37 °C
  self-splicing fitness (ln): -1.07 ± 0.12

## ACGUAGCAAUAUUACGAGUU
30 °C
  self-splicing fitness (ln): -4.04 ± 0.17
37 °C
  self-splicing fitness (ln): -1.3 ± 0.13

## ACGUAGCAAUAUUACGAUCU
30 °C
  self-splicing fitness (ln): -0.0721 ± 0.051
37 °C
  self-splicing fitness (ln): 0.356 ± 0.065

## ACGUAGCAAUAUUACGAUGA
30 °C
  self-splicing fitness (ln): -0.81 ± 0.091
37 °C
  self-splicing fitness (ln): -0.268 ± 0.11

## ACGUAGCAAUAUUACGCCCG
30 °C
  self-splicing fitness (ln): -0.224 ± 0.13
37 °C
  self-splicing fitness (ln): -0.474 ± 0.17

## ACGUAGCAAUAUUACGCGAA
30 °C
  self-splicing fitness (ln): -1.46 ± 0.16
37 °C
  self-splicing fitness (ln): -0.935 ± 0.18

## ACGUAGCAAUAUUACGCUAU
30 °C
  self-splicing fitness (ln): -4.59 ± 0.34
37 °C
  self-splicing fitness (ln): -3.11 ± 0.35

## ACGUAGCAAUAUUACGGAGU
30 °C
  self-splicing fitness (ln): -3.1 ± 0.1
37 °C
  self-splicing fitness (ln): -1.18 ± 0.079

## ACGUAGCAAUAUUACGGAUA
30 °C
  self-splicing fitness (ln): -2.48 ± 0.15
37 °C
  self-splicing fitness (ln): -0.584 ± 0.11

## ACGUAGCAAUAUUACGGCAA
30 °C
  self-splicing fitness (ln): -1.49 ± 0.1
37 °C
  self-splicing fitness (ln): -1.15 ± 0.09

## ACGUAGCAAUAUUACGGCCU
30 °C
  self-splicing fitness (ln): -0.463 ± 0.12
37 °C
  self-splicing fitness (ln): 0.149 ± 0.13

## ACGUAGCAAUAUUACGGGCC
30 °C
  self-splicing fitness (ln): -2.66 ± 0.14
37 °C
  self-splicing fitness (ln): -0.629 ± 0.12

## ACGUAGCAAUAUUACGGGCG
30 °C
  self-splicing fitness (ln): -0.566 ± 0.19
37 °C
  self-splicing fitness (ln): -1.07 ± 0.19

## ACGUAGCAAUAUUACGGUAG
30 °C
  self-splicing fitness (ln): -3.11 ± 0.15
37 °C
  self-splicing fitness (ln): -2.25 ± 0.2

## ACGUAGCAAUAUUACGUAAA
30 °C
  self-splicing fitness (ln): -3.11 ± 0.28
37 °C
  self-splicing fitness (ln): -0.404 ± 0.19

## ACGUAGCAAUAUUACGUAGG
30 °C
  self-splicing fitness (ln): -3.76 ± 0.18
37 °C
  self-splicing fitness (ln): -1.73 ± 0.13

## ACGUAGCAAUAUUACGUCAU
30 °C
  self-splicing fitness (ln): -2.12 ± 0.17
37 °C
  self-splicing fitness (ln): -2.4 ± 0.3

## ACGUAGCAAUAUUACGUUAA
30 °C
  self-splicing fitness (ln): -3.53 ± 0.25
37 °C
  self-splicing fitness (ln): -2.58 ± 0.2

## ACGUAGCAAUAUUACGUUAC
30 °C
  self-splicing fitness (ln): -3.3 ± 0.23
37 °C
  self-splicing fitness (ln): -2.83 ± 0.26

## ACGUAGCAAUAUUACGUUCA
30 °C
  self-splicing fitness (ln): -2.31 ± 0.13
37 °C
  self-splicing fitness (ln): -0.777 ± 0.12

## ACUAAGCAAUAUUACGAAGA
30 °C
  self-splicing fitness (ln): -1.65 ± 0.17
37 °C
  self-splicing fitness (ln): -1.29 ± 0.18

## ACUAAGCAAUAUUACGACAU
30 °C
  self-splicing fitness (ln): -0.431 ± 0.011
37 °C
  self-splicing fitness (ln): -0.0773 ± 0.032

## ACUAAGCAAUAUUACGAGCU
30 °C
  self-splicing fitness (ln): -0.626 ± 0.079
37 °C
  self-splicing fitness (ln): -0.478 ± 0.087

## ACUAAGCAAUAUUACGAUUC
30 °C
  self-splicing fitness (ln): -2.12 ± 0.091
37 °C
  self-splicing fitness (ln): -0.397 ± 0.11

## ACUAAGCAAUAUUACGCACU
30 °C
  self-splicing fitness (ln): -0.0279 ± 0.082
37 °C
  self-splicing fitness (ln): -0.417 ± 0.08

## ACUAAGCAAUAUUACGCUGC
30 °C
  self-splicing fitness (ln): -2.57 ± 0.15
37 °C
  self-splicing fitness (ln): -2.17 ± 0.14

## ACUAAGCAAUAUUACGCUGG
30 °C
  self-splicing fitness (ln): -2.82 ± 0.19
37 °C
  self-splicing fitness (ln): -2.93 ± 0.31

## ACUAAGCAAUAUUACGCUUA
30 °C
  self-splicing fitness (ln): -2.54 ± 0.25
37 °C
  self-splicing fitness (ln): -2.83 ± 0.32

## ACUAAGCAAUAUUACGUCAC
30 °C
  self-splicing fitness (ln): -3.64 ± 0.19
37 °C
  self-splicing fitness (ln): -2.91 ± 0.27

## ACUAAGCAAUAUUACGUCCC
30 °C
  self-splicing fitness (ln): -1.43 ± 0.22
37 °C
  self-splicing fitness (ln): -1.07 ± 0.32

## ACUAAGCAAUAUUACGUCGU
30 °C
  self-splicing fitness (ln): -3.51 ± 0.17
37 °C
  self-splicing fitness (ln): -1.16 ± 0.12

## ACUAAGCAAUAUUACGUGAG
30 °C
  self-splicing fitness (ln): -0.615 ± 0.057
37 °C
  self-splicing fitness (ln): -0.636 ± 0.076

## ACUAAGCAAUAUUACGUGGG
30 °C
  self-splicing fitness (ln): -2.98 ± 0.14
37 °C
  self-splicing fitness (ln): -2.81 ± 0.14

## ACUAAGCAAUAUUACGUGUG
30 °C
  self-splicing fitness (ln): -2.18 ± 0.07
37 °C
  self-splicing fitness (ln): -1.06 ± 0.076

## ACUAAGCAAUAUUACGUGUU
30 °C
  self-splicing fitness (ln): -3.63 ± 0.1
37 °C
  self-splicing fitness (ln): -2.2 ± 0.098

## ACUAAGCAAUAUUACGUUGG
30 °C
  self-splicing fitness (ln): -2.95 ± 0.12
37 °C
  self-splicing fitness (ln): -1.73 ± 0.11

## ACUCAGCAAUAUUACGACAU
30 °C
  self-splicing fitness (ln): -0.385 ± 0.011
37 °C
  self-splicing fitness (ln): 0.0786 ± 0.032
